Where no end group is shown, it is not given here.
Biological target: T1, F2R like trypsin receptor 1 (PAR2) (UniProt P55085 37-397)
T1 sequence (looked up): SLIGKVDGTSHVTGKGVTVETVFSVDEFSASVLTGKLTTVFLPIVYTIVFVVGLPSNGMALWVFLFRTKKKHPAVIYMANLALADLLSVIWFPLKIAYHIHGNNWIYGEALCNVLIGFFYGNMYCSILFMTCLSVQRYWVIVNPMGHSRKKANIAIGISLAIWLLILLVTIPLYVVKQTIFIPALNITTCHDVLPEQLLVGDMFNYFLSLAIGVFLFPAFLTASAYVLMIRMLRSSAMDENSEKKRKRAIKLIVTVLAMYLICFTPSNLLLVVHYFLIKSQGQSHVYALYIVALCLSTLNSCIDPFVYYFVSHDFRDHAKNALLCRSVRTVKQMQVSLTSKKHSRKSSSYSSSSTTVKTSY
Assay: cell-based or functional assay

For SLIGKV, the “EC50 SLIGKV calcium assay” value was 1.67 µM and the “EC50 SLIGKV ß-Arrestin assay” value was 4.83 µM.

For SLIGRL-NH2 [SLIGRL-NH2], the “EC50 SLIGRL-NH2 calcium assay” value was 4.06 µM and the “EC50 SLIGRL-NH2 ß-Arrestin assay” value was 12.7 µM.

Reference: patent US20190359686A1 (INNOVATIVE TECHNOLOGIES IN BIOLOGICAL SYSTEMS SL, published 2019)
